These results are taken from the DeepSol protein solubility set.

The data set is described as follows: soluble on expression in E. coli; label from the status in PepcDB or PDB records.
In the case of “MGSDKIHHHHHHMQPTYNIDNPNLSYEAKRDLWRIGFGLQKVDNLVPSAYMESLAEKQSRGELTYEQVYEDATAYHHTIDASTEEADLVSLRIVELLSRRGFSFSPAILLAIHKELFQDIFEPSIPVGQFRQTNITKNEPVLNGESVVYSDYSMIQMTLDYDFNQEKQVAYATLTQADMVKKIQHFISGIWQIHPFREGNTRTVTVFLIQYLREFGFDIDNTPFQQHSKYFRDALVLDNAKILQRRPEFLTAFFENLLLGGQNDLSSEKMYLDLDLDLS”, the “soluble on expression in E. coli” value is “not soluble”.

For “MSLITCKFKNLGNLHAGGCGYIPLSSTREERVKNGSRVVSTALLSSYHKGIAFVIFPSHHHTPTRPPSPKPSGSGGYLLNLRRRDPPQAFLSGCPPLPPRGSVLLGCTPPRTQFFVFHVVSYPLVLQKLLQTRDQKSIGSNSSCDTSEMSDCWQVTLSI”, the “soluble on expression in E. coli” value is given as “not soluble”.

As to “MAKTYDYLFKLLLIGDSGVGKTCVLFRFSDDSFNNSFISTIGIDFKIRTIELDGKKIKLQIWDTAGQERFRTITTAYYRGAMGIILVYDITNERSFENIKNWIRNIEEHAASDVERMIIGNKCDIEERREVSRDRGEQLAIEYGTKFLETSAKANLNIDEAFFTLARDIKSKMEQNEMRAGGSVSNTGRVNVGGSGTQKKSFFSNWSCNLL”, the “soluble on expression in E. coli” value was “not soluble”.

On to “MLTVTFTVSNTGDRAGAAVPQVYPGFPNTTIDRCVRELKAFRRVELEPGQRQTVTVALTRRDLSYWDILPHPLRSYAVGSILEHHHHHH”, for which the “soluble on expression in E. coli” value is “not soluble”.

As to “MKLEFNLIIAGVGGQGGLTLSRIIGNAAMIEGYRVRIGETLGMSQRYGSVLSYLRFGEEVYSPLIEEGKADLMLALEPVEALRNARFLSRKSYAIINAYPIHTATTLVGKERYPDLEEIKEAIGKICRVEMRNFQEEADKINPRTLGVLMTGFAWRKGLLPLKKESIIEGIKLTLREKLWDINFRAFERGVELASL”, the “soluble on expression in E. coli” value is given as “soluble”.

For “MSTETDSILAAFEKFNTIIIHRHINPDPDAIGSQTGLALLLRAAYPAKTIYTAGPAAPDLAWIGPQQQVSAEAYTGALVVVIDTSNRERIAGDHFDQGAMLIKIDHHLDEDQLGTINWVDTHASSASEMVWDLVRHSPQLQLTKAAATALYAGIIGDTGRFLYDLTTARTHQAAADLLATGIDAAAIGRQEDQFPENVGRLIGWALENVKITDTGAGSLLITKAVLAQFGLAYGEEQRAVGNIGKLASIDRWVVFTERTDGSYRVELRGKTKEINTLAVQHGGGGHPLASGAVADNAAELHAIEEELASLLEHHHHHH”, the “soluble on expression in E. coli” value is given as “soluble”.

For the sequence “PRRGPVAKRDVLPDPIYNSKLVTRLINKIMIDGKKSKAQKILYTAFDIIRERTGKDPMEVFEQALKNVMPVLEVRARRVGGANYQVPVEVRPDRRVSLGLRWLVQYARLRNEKTMEERLANEIMDAANNTGAAVKKREDTHKMAEANKAFAHYRW”, the “soluble on expression in E. coli” value is listed as “soluble”.

For the sequence “MGSDKIHHHHHHMAGRFDAFVLFAEMRTGSNYLEDSLNTFADINCLGEVFNPTFIGHDNNFEMLGYDMDRREHDPLGLLDAIIDTVDGLPGFRLFHDHDTRVVDRVLPDPRIAKVILTRNPLDSYVSRKIATATGQWKLTDMKHAKTAQIRFDADEFGALLDAVLPFQEYVRQGLLKSGQVAFQVRYEDINDPEMLNGLAAFLGSDERVERASKTLKRQNPAPLRDKVENYEEMVAALSDLDRFGLDKLPELEPDRGAQVPNFVAHPTLGLLFCPIKGAPEKSVLNWMGALGDVGKDALIRKMTQKQLRQWMKDNPGFRSFTVLRHPVVRAYTVFNRFILPDDRPAYADPRKTLRQRYKVPIPENAPGDGWTEAEQKAAFQGFIFFLKGNLAGQTSVRVDQAWATQTAILQGTSSVMVPQAVIHEDHMTEALPALAHQVGAEDVPQVVEEAMPGLHKLKSIYDGKIEQALIDTYRRDYVGFGFPRWNKR”, the “soluble on expression in E. coli” value is on record as “not soluble”.

In the case of “SNAESAAPQVHLSILATTDIHANMMDYDYYSDKETADFGLARTAQLIQKHREQNPNTLLVDNGDLIQGNPLGEYAVKYQKDDIISGTKTHPIISVMNALKYDAGTLGNHEFNYGLDFLDGTIKGADFPIVNANVKTTSGENRYTPYVINEKTLIDENGNEQKVKVGYIGFVPPQIMTWDKKNLEGQVQVQDIVESANETIPKMKAEGADVIIALAHTGIEKQAQSSGAENAVFDLATKTKGIDAIISGHQHGLFPSAEYAGVAQFNVEKGTINGIPVVMPSSWGKYLGVIDLKLEKADGSWKVADSKGSIESIAGNVTSRNETVTNTIQQTHQNTLEYVRK”, the “soluble on expression in E. coli” value was “soluble”.

Turning to “MGSDKIHHHHHHMNKHIASMLLGALLLNVGCSAIMSEKGFITQDKQVTQFNTEYIEKLAQSLPQHMVNQISIDGDEQVSLKGLFIDNPNSHTLVFFIQGNGMKVDPDSLAVLLTLSQLGTDIAIFDRRGLGASNGQATIANLLTDAIQELTFIRHTYQPDKVIVHGYSLGSFIAAQLVKNQAADALVMQGSATNVDDWIATKIPWYMPFLTVETPESFKLVDNQEVVSKFYQGPLMVIGAEKDDQVPAELSEKLFLASQSKIKSLIIVPKANHGEMLNSAKTMQAYREFLARI”, the “soluble on expression in E. coli” value is listed as “not soluble”.

For the sequence “MPRLENTIDIKVPVNIAYNQWTQFETFPNFMSSVLQVKQLDDSHVWWQVEIGGHAIEWETEIIEQVPDDHIAWRSVSGPRHLGLVSFKHVDIHATRVHVEIEYEADMKAEVSATMTGLLEQKISEALTCYRQLLESRKRPAGGWRGRIAVGTDNAVRHLEHHHHHH”, the “soluble on expression in E. coli” value was “soluble”.

In the case of “MGSDKIHHHHHHMNVENQSLSDIEIILSHRYDNGADYWTTPDKRLIKGSPFSTLDSVLYLLELGVNPDDTLLKECADLIFSTWREDGRFKLYPNGGIYPCHTANAANVLCHMGYASDIRMQKTFQHFLDTQYTDGGWRCNKFSFGRGPETEYSNPLPTLNILNAFRFSNYLNKESKLDKAVDFLLDHWTIKKPIGPCHYGIGTLFMQVEYPFRNYNLFLYVYVLSFYSRAKKDKRFLEALKILESKMIGNKIVVERVVPKLSKLSFCKKGESSEIATTHYYEILKNLDK”, the “soluble on expression in E. coli” value is listed as “not soluble”.

For “YRQSQSRAARLRLLVDTGQELIQLPPEAMRKCVLQRACAFVAMDHGLLLEWGADNGVQTTARHGSKERLSTLETTADPLAIGPQWLERPGTHLPCVLLLPLRGADEGSFGTLVLANSVAISAPDGEDIESLQLLATLLAAHLENNRLLEALVARDRT”, the “soluble on expression in E. coli” value is “soluble”.

Regarding “MSRRVEFDLSTEDHSDRRRTNTFSSDEDGVPNEVADYLVYFSRMVDEQNVPEILTLYDQAFPDLTERFFRDRMWPDENVVERIIGPGNKLFIILYKELYYRQLYARNTRGPLLVHRYESFMNYQELFSELLSSKDPIPLSLPNVWLWDIIDEFVYQFQAFCLYKANPGKRNADEVEDLINIEENQNAWNIYPVLNILYSLLSKSQIVEQLKALKEKRNPDSVADEFGQSDLYFKLGYFALIGLLRTHVLLGDYHQALKTVQYVDIDPKGIYNTVPTCLVTLHYFVGFSHLMMRNYGEATKMFVNCLLYIQRTKSVQNQQPSKKNFQYDVIGKTWDQLFHLLAICLAIQPQRIDESIASQLSERCGERMMHMANGNIDEFRNAFATGCPKFLSPTTVVYEGVNQSKEPLLRQTQSFLEGIESQMALPVLRGYLKLYTTLPTKKLASFMDVDDEHYDSFIGKLLTYKMIVNELGKEAGPSSADDDEPQTDIDFYVDRDMINIADTKVARHVGEHFIRHIQKLQEVQDVLKRLDIQKP”, the “soluble on expression in E. coli” value is “not soluble”.

Consider “MNSQTTKDIPCFRSYLPDALRLRFEDKLTIRAIAQRLGLSHSTIHTLFQRFLASGIAWPLPDSVSFAQLDAILYANRKKELTEPQIREGSWRKERRTSYSREFKVRLAKQALQPGAVVARIAREHDINNNLLFKWKSQYEDGLLSDDDIQECMPVPVALTDTPEPTRPVTNPFWRNKHDERPEGAPGNVPRCELHLKSGVVKLFDPLTPELLRALIREMKGGIRLEHHHHHH”, for which the “soluble on expression in E. coli” value was “not soluble”.

As to “MKAMNKVWVIGDASVDLVPEKQNSYLKCPGGASANVGVCVARLGGECGFIGCLGDDDAGRFLRQVFQDNGVDVTFLRLDADLTSAVLIVNLTADGERSFTYLVHPGADTYVSPQDLPPFRQYEWFYFSSIGLTDRPAREACLEGARRMREAGGYVLFDVNLRSKMWGNTDEIPELIARSAALASICKVSADELCQLSGASHWQDARYYLRDLGCDTTIISLGADGALLITAEGEFHFPAPRVDVVDTTGAGDAFVGGLLFTLSRANCWDHALLAEAISNANACGAMAVTAKGAMTALPFPDQLNTFLSSHSLAQAMTVK”, the “soluble on expression in E. coli” value was “not soluble”.

For “SNAMKAPELQIQQWFNSATDLTLADLRGKVIVIEAFQMLCPGCVMHGIPLAQKVRAAFPEDKVAVLGLHTVFEHHEAMTPISLKAFLHEYRIKFPVGVDQPGDGAMPRTMAAYQMRGTPSLLLIDKAGDLRAHHFGDVSELLLGAEIATLLGEAAPSV”, the “soluble on expression in E. coli” value is reported as “soluble”.

In the case of “MAHHHHHHMDVKEYTHNIIDIDISNHIKIRSSNNYNNKKLKETIRQNAKKIRDITFKYWIKEKQLQSGNFVINDENINDKMIIENKKDIINNINNDKKISYSYVDSFQTCVTNSKDEEGVLYIDDLYTYLIRQLYILFCSLEVRKKKNNVQFDFTRIYKYTYNYKKLESHISYEYLKKYDINDDIIKNDIENFHFYAYDHNIEDPKKYCDMEENYNNANYNICIYLPTKKEIDILFIIDQLYDYFYFVLYVPITTKEKDLIFFPFNIKNNLLVQYHFNIFIPYDYIYYTTYKKMNNFILNYSKIVKNYELSNSLYKHNDTIILIPLIAYNKLGYRIGSGKGYYDKTLTKTRKKNDIIKQIKNIQMNDNIITNNKDHDIQKENHLYLGTKNDTNNIICSNVKNIKHKTFNNEIEIYTQNKQKIYFNEIKIGVSFEMFLYDIDFSETTDLILDYMINENNIYHFIL”, the “soluble on expression in E. coli” value is “not soluble”.

Turning to “MLPFAPQDEPWDREMEVFSGGGASSGEVNGLKMVDEPMEEGEADSCHDEGVVKEIPITHHVKEGYEKADPAQFELLKVLGQGSFGKVFLVRKKTGPDAGQLYAMKVLKKASLKVRDRVRTKMERDILVEVNHPFIVKLHYAFQTEGKLYLILDFLRGGDVFTRLSKEVLFTEEDVKFYLAELALALDHLHQLGIVYRDLKPENILLDEIGHIKLTDFGLSKESVDQEKKAYSFCGTVEYMAPEVVNRRGHSQSADWWSYGVLMFEMLTGTLPFQGKDRNETMNMILKAKLGMPQFLSAEAQSLLRMLFKRNPANRLGSEGVEEIKRHLFFANIDWDKLYKREVQPPFKPASGKPDDTFCFDPEFTAKTPKDSPGLPASANAHQLFKGFSFVATSIAEEYKITPITSANVLPIVQINGNAAQFGEVYELKEDIGVGSYSVCKRCIHATTNMEFAVKIIDKSKRDPSEEIEILMRYGQHPNIITLKDVFDDGRYVYLVTDLMKGGELLDRILKQKCFSEREASDILYVISKTVDYLHCQGVVHRDLKPSNILYMDESASADSIRICDFGFAKQLRGENGLLLTPCYTANFVAPEVLMQQGYDAACDIWSLGVLFYTMLAGYTPFANGPNDTPEEILLRIGNGKFSLSGGNWDNISDGAKDLLSHMLHMDPHQRYTAEQILKHSWITHRDQLPNDQPKRNDVSHVVKGAMVATYSALTHKTFQPVLEPVAASSLAQRRSMKKRTSTGL”, the “soluble on expression in E. coli” value was “soluble”.

With “SLERSQVFNILRMMPKGAALHLHDIGIVTMDWLVRNVTYRPHCHICFTPRGIMQFRFAHPTPRPSEKCSKWILLEDYRKRVQNVTEFDDSLLRNFTLVTQHPEVIYTNQNVVWSKFETIFFTISGLIHYAPVFRDYVFRSMQEFYEDNVLYMEIRARLLPVYELSGEHHDEEWSVKTYQEVAQKFVETHPEFIGIKIIYSDHRSKDVAVIAESIRMAMGLRIKFPTVVAGFDLVGHEDTGHSLHDYKEALMIPAKDGVKLPYFFHAGETDWQGTSIDRNILDALMLNTTRIGHGFALSKHPAVRTYSWKKDIPIEVCPISNQVLKLVSDLRNHPVATLMATGHPMVISSDDPAMFGAKGLSYDFYEVFMGIGGMKADLRTLKQLAMNSIKYSTLLESEKNTFMEIWKKRWDKFIADVATK”, the “soluble on expression in E. coli” value is given as “soluble”.
